Two molecules from paper doi:10.1101/202184 (bioRxiv, 2017) can be followed below.

To fix the notation:
B2: SecE (subunit of Escherichia coli SecYEG) (natural protein)
chain: MSANTEAQGSGRGLEAMKWVVVVALLLVAIVGNYLYRDIMLPLRALAVVILIAAAGGVALLTTKGKATVAFAREARTEVRKVIWPTRQETLHTTLIVAAVTAVMSLILWGLDGILVRLVSFITGLRF

For test [1], the target named is T1, SecY (wild type, subunit of Escherichia coli SecYEG) (E. coli, UniProt P0AGA2 1-443).
T1 sequence: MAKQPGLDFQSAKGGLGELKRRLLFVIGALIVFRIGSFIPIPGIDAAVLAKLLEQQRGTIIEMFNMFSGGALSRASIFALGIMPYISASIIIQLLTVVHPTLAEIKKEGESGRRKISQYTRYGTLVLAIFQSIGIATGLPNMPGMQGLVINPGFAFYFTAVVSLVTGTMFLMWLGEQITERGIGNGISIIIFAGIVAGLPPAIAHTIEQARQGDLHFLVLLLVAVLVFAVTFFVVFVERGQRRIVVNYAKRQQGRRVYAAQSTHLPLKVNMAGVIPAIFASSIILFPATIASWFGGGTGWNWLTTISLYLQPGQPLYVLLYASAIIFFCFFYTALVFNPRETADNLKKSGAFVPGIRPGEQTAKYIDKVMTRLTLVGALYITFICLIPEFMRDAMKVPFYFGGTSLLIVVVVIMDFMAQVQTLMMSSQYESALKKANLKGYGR
As to the kind of experiment: native MS.

Test [2] has as its target B2. As to the kind of experiment: native MS.

B1: SecG (subunit of Escherichia coli SecYEG) (natural protein)
chain: MYEALLVVFLIVAIGLVGLIMLQQGKGADMGASFGAGASATLFGSSGSGNFMTRMTALLATLFFIISLVLGNINSNKTNKGSEWENLSAPAKTEQTQPAAPAKPTSDIPN
For the molecule B1, the binding result in test [1] and in test [2] was “binds” in each case.
For the molecule B2, the binding result in test [1] is on record as “binds”.
